From patent CN113754775A (SUNSHINE GUOJIAN PHARMACEUTICAL SHANGHAI CO LTD, dated 2021)

Biological target: T1, PDL1-ECD-his (human, UniProt Q9NZQ7 19-238)
T1 construct: extracellular domain; Made in HEK-293F
Experiment: ELISA, PDL1-ECD-his coated, anti-human IgG Fc-HRP

T1 sequence (Q9NZQ7 other isoform, or with tags, fused parts or gaps): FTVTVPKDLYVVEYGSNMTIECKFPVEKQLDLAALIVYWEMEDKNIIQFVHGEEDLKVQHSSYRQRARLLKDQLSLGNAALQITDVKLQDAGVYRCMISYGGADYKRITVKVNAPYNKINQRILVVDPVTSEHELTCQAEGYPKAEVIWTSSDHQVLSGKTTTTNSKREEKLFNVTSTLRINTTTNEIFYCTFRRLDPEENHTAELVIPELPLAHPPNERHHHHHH

B1: 抗人PD-L1抗体M8 (antibody, V domains shown)
VH: QVQLQQSGGGLVKPSQSLSLTCTVSGFSLTSYGVHWVRQPPGKGLEWIGLIWSGGGTDYNPSLKSRLTISRDTSKNQVSFKISSLTAADTAVYYCARQLGLRAMDYWGQGTSVTVSS
VL: EIVLTQSPDFLSVTPKEKVTITCRASQSIGTTIHWYQQKPDQSPKLLIKYASQSFSGVPSRFSGSGSGTDFTLTINSVEAEDAATYYCQQSNSWPLTFGAGTKLEIK
notes: Whole monoclonal antibody with two heavy and two light chains, made in HEK293F; also called anti-human PD-L1 antibody M8
binding result: binds
